According to article doi:10.1101/2022.07.07.22277364:

Legend:
Assay in all cases: BLI
[1] = target: human ACE2 polymorphism S19P (rs73635825) (human) (UniProt Q9BYF1)
[2] = target: truncated human ACE2 (residues 19-613 with a C-terminal AviTag and 6xHis-tag), biotinylated (human) (UniProt Q9BYF1)
[3] = target: human ACE2 polymorphism K26R (rs4646116) (human) (UniProt Q9BYF1)

SARS-CoV-2 Omicron BA.2 RBD (from UniProt P0DTC2) (domain or fragment)
Kd [1]: 4.97 nM
t1/2 [2]: 2.7 min
Kd [3]: 5.18 nM

SARS-CoV-2 RBD Alpha (B.1.1.7), N501Y (from UniProt P0DTC2) (domain or fragment)
t1/2 [2]: 5.49 min

SARS-CoV-2 RBD Beta (B.1.351) (from UniProt P0DTC2) (domain or fragment)
t1/2 [2]: 2.75 min

SARS-CoV-2 RBD Gamma (P.1) (from UniProt P0DTC2) (domain or fragment)
t1/2 [2]: 3.58 min

SARS-CoV-2 ancestral RBD recombinant protein (from UniProt P0DTC2) (domain or fragment)
t1/2 [2]: 1.39 min
